Here are results for 2 molecules from patent CN107522783A (HUABO BIOPHARM MEDICINE TECH SHANGHAI CO LTD, dated 2017).

For assay [1], the target named is T1, Recombinant human IL-17A (Sino Biological, 12047-HNAS) (human, UniProt Q16552 24-155).
T1 construct: mature; Bought recombinant protein; also called 人IL-17A; huIL-17A
T1 sequence (looked up): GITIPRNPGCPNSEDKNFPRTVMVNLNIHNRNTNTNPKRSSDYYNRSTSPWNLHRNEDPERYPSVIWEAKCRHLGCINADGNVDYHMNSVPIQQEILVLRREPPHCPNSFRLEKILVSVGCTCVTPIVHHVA
Nature of the assay: Biacore SPR, antibody captured on anti-human capture CM5 chip, IL-17A as analyte, 1:1 model.

In assay [2] the target is T1, Recombinant human IL-17A (Sino …). As to the kind of experiment: indirect ELISA, human IL-17A coated at 1 μg/ml.
For assay [3] the target is unchanged. As to the kind of experiment: indirect ELISA, human IL-17A coated (Table 5, species cross-reactivity). For orientation: ELISA stands for enzyme-linked immunosorbent assay.
Assay [4] deals with T2, Recombinant marmoset IL-17A (Sino Biological, 90287-CNAE-100) (marmoset, UniProt A0ACM8QD00 24-153).
T2 construct: Bought recombinant protein; also called 狨猴IL-17A
T2 sequence: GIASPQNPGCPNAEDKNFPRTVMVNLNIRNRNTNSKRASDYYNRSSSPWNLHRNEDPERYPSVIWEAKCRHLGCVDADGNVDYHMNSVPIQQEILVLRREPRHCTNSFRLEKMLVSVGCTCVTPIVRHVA
As to the kind of experiment: indirect ELISA, marmoset IL-17A coated (Table 6).

In assay [5] the target is T3, Recombinant mouse IL-17A (Sino Biological, PBV10159R-010) (mouse, UniProt Q62386 26-158).
T3 construct: Bought recombinant protein; also called 小鼠的IL-17A
T3 sequence (looked up): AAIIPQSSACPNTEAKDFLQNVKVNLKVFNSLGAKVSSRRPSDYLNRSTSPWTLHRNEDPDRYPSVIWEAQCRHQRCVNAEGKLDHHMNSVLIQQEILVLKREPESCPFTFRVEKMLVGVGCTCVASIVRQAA
Nature of the assay: indirect ELISA, mouse IL-17A coated at 1 μg/ml; paragraph 219 says 与小鼠的IL-17A无结合.

B1: 人源化抗体 (antibody, V domains shown)
VH: QVQLVQSGAEVKKPGASVKVSCKASGYTFTDYAMHWVRQAPGQGLEWMGVIGPYNDNTNYAQKFQGRVTMTVDTSTSTVYMELSSLRSEDTAIYYCARGERYFDYWGQGTTVTVSS
VL: DIQMTQSPSTLSASVGDRVTITCRASDHINNWLAWYQQKPGKAPKLLIYGATSLETGVPSRFSGSGSGTEYTLTISSLQPDDFATYYCQQYWTIPLTFGQGTKLEIK
notes: Expressed in CHO-K1; also called IL17-HC5-1D4/IL17-LC5-1C5; 本发明人源化抗体
Consider B1, for which, in assay [1], the Kd was determined as 0.019 nM, the dissociation rate constant (koff) came out at 0.000181 s⁻¹ and the kon amounted to 9.56e+06 M⁻¹ s⁻¹.

B2: 嵌合抗体 (antibody, V domains shown)
VH: QVQLQQSGPEVVRPGVSVKISCKGSGYTFTDYAMHWVKQSHAKSLEWIGVIGPYNDNTNYNQKFKGKATMTVDKSSSTAYMEIARLTSEDSAIYYCARGERYFDYWGQGTTLTVSS
VL: DIQMTQSSSYLSVSLGGRVTITCRASDHINNWLAWYQQKPGNAPRLLIYGATSLETGVPSRFSGSGSGKDYTLSITSLQTEDVATYYCQQYWTIPLTFGAGTKLELK
notes: also called chimeric 14F10/9F6 antibody; 本发明嵌合抗体
On to B2, for which the EC50 in assay [2] was found to be 0.03 µg/mL. Also, in assay [3], the EC50 stood at 0.03 µg/mL. In assay [4], the half-maximal effective concentration (EC50) is 0.0264 µg/mL. Further, in assay [1], the dissociation constant (Kd) amounted to 0.097 nM, the koff stood at 0.000101 s⁻¹ and the kon turned out to be 1.04e+06 M⁻¹ s⁻¹. For the same molecule, the binding result in assay [5] is on record as “no binding”.

Broadly, the Kd is the concentration at which binding is half-saturated. As a reminder, the koff is the first-order rate constant of dissociation. One may read the kon as the second-order rate constant of association. The term EC50 denotes the concentration at which the effect is half-maximal.
